Data published in patent US20090226458A1.

Biological target: Netrin-1-FlagM2 (recombinant netrin-1, Apotech)
Test: ELISA: DCC-5Fbn 100 ng coated, netrin-1 0 to 800 ng, IL3-R values subtracted

Kd: 5 nM
Substance: DCC-5Fbn (recombinant soluble fifth fibronectin type III domain of DCC) (from UniProt P43146 846-942) (receptor)
